# Source: the RNAGym collection of RNA variant scans (doi:10.7554/elife.80360)
# B1: Hairpin Ribozyme (parent)
# chain: GUCCUCUUUCACGUGCGCGUGAAAGAGAGAAGUGAACCAGAGAAACACACGUUGUGGUAUAUUACCUGGUA
# Variants of: B1
# Test: self-cleavage, relative activity (ratio to wild type); higher = more cleavage; co-transcriptional
row,Variant,self-cleavage
1,A36U A59U,0.132
2,C38A C48A,0.14
3,C38A C48G,0.122
4,C37U U52A,0.672
5,C38A U70C,0.115
6,C38A U70G,0.141
7,A36U A39U,0.171
8,A36U U55C,0.124
9,A36U U55G,0.163
10,A39G C50G,0.111
11,C37U C46A,0.121
12,C37U C46G,0.13
13,C37G C38U,0.128
14,C37U G40U,0.178
15,C37U G40A,0.183
16,C38U U55A,0.168
17,C37U U53C,0.808
18,C38A G40C,0.103
19,C38A G40U,0.23
20,C37G A39C,0.163
21,C37A A47U,0.19
22,C37A A47C,0.108
23,C37A A64G,0.187
24,C38U A39U,0.185

row,Variant,self-cleavage
1,C38U A39G,0.3
2,C37U A49U,0.211
3,C37G A61G,0.155
4,C37G A44G,0.185
5,C37G A44U,0.118
6,C38U G40A,0.203
7,C37A C38G,0.31
8,C38G G54A,0.105
9,A39G G51A,0.396
10,A36G U55C,0.324
11,A36G U55G,0.271
12,C37A C65A,0.259
13,C37A C65U,0.261
14,C38A U60G,0.218
15,C38A G68A,0.148
16,A36U U67G,0.177
17,A36U U67A,0.235
18,C37G G51C,0.469
19,C37U G51C,0.689
20,C37U G51A,0.967
21,A39G G57C,0.105
22,A39G G57U,0.0985
23,A39G G57A,0.129
24,C38A U55C,0.116

row,Variant,self-cleavage
1,C37U A39U,0.208
2,A39G U70C,0.372
3,A39G U70A,0.2
4,A39G U70G,0.332
5,C38U A49U,0.137
6,C38U A49G,0.343
7,A39C U60C,0.784
8,A39C U60G,0.33
9,A39C U60A,0.359
10,C38U U67C,0.121
11,C37G A71G,0.341
12,C38G A59C,0.12
13,C38A U58A,0.211
14,C37A G69A,0.434
15,C37A A59G,0.241
16,C37A A59C,0.137
17,C37A A59U,0.0631
18,C37A U67C,0.0944
19,A39G U67G,0.147
20,A39G U67C,0.544
21,A36U G56U,0.21
22,A36G A49U,0.204
23,A39C G51A,0.751
24,C38G C65U,0.0351

row,Variant,self-cleavage
1,A39G U53C,0.273
2,A39G U53G,0.207
3,C37G G57C,0.21
4,A36U A64U,0.165
5,A39C A64U,0.16
6,A39C A64G,0.0974
7,C37G U58G,0.136
8,C38A A44G,0.144
9,C38A A44U,0.118
10,C37U A47U,0.177
11,C37U A47G,0.167
12,A36U C38G,0.0875
13,A36G A45U,0.219
14,A36G A45G,0.28
15,C37G U55A,0.226
16,C37G U55C,0.178
17,A39C U67C,0.149
18,A36G U67C,0.335
19,C37U U67C,0.142
20,C37U U67G,0.234
21,C37G C65G,0.225
22,C38U C46U,0.0928
23,C38G G40C,0.0961
24,C38U A64G,0.306

row,Variant,self-cleavage
1,C38U A64C,0.233
2,C37G A49C,0.348
3,C38G A49U,0.137
4,A36U U53G,0.224
5,C38U A45U,0.113
6,C38A C46U,0.187
7,A39C C46G,0.13
8,A39C C46A,0.191
9,A39C C46U,0.103
10,C37U A44C,0.1
11,C37G C48U,0.144
12,C37G U53A,0.245
13,C37A C46A,0.179
14,C37A C46G,0.0923
15,C38U U62G,0.124
16,C38U A47U,0.151
17,A36G U52C,1.24
18,A36U A49U,0.124
19,C37U G56A,0.156
20,C38U A43C,0.0947
21,A39C U70C,0.247
22,C38A A59U,0.134
23,C38A A59G,0.118
24,C38U G69U,0.283

row,Variant,self-cleavage
1,C37G G54C,0.149
2,A36U G51U,0.648
3,C37U G68U,0.193
4,C37U G68C,0.139
5,C38U G54A,0.269
6,C38U A44G,0.0449
7,A39C C65A,0.233
8,C38A C50A,0.0919
9,C38A C50U,0.15
10,A39G A64C,0.174
11,A39G A64U,0.123
12,C38A G42C,0.0881
13,C38A G42U,0.112
14,C38A A61G,0.258
15,C38A A61C,0.174
16,C38G A39C,0.146
17,C38G A39G,0.117
18,A36U C46U,0.31
19,A39G A44G,0.129
20,A39C A71G,0.248
21,A39C A71U,0.136
22,C37A U63A,0.163
23,C37A U63C,0.131
24,C38A A47C,0.146

row,Variant,self-cleavage
1,C38A A47U,0.0951
2,C37A U52A,0.484
3,A36G A43C,0.228
4,A36G A43U,0.0504
5,C37G G42U,0.0921
6,A36G G42U,0.227
7,A36U C48A,0.0449
8,A39C G40A,0.112
9,A39C G40U,0.0957
10,A39C C50A,0.165
11,A39C C50G,0.0993
12,A36U C65G,0.106
13,A36U A41G,0.476
14,C38G G42U,0.172
15,A39C A59G,0.126
16,A39C A59U,0.172
17,A39C A59C,0.114
18,A36G U62C,0.328
19,A39C A49G,0.208
20,C37U A43G,0.146
21,A36U G57C,0.172
22,A36U G54A,0.212
23,A36U G54C,0.278
